According to patent US20210206856A1 (PANDION OPERATIONS, published 2021):

T1: human MAdCAM expressed on cells (human, UniProt Q13477 19-382)
T1 construct: whole, on cells; also called MADCAM1
T1 sequence (looked up): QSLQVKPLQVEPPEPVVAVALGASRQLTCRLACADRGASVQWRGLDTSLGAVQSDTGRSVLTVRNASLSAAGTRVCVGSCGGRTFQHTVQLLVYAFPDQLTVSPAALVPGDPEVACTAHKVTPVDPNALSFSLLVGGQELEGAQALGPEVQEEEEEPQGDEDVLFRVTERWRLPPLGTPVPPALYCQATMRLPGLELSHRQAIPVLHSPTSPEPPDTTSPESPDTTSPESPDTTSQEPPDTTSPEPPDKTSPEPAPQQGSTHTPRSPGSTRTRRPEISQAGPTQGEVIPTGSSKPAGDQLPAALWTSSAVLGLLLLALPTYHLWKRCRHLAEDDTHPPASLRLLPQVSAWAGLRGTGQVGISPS

T2: mouse MAdCAM expressed on cells (mouse, UniProt Q61826 22-405)
T2 construct: whole, on cells
T2 sequence (looked up): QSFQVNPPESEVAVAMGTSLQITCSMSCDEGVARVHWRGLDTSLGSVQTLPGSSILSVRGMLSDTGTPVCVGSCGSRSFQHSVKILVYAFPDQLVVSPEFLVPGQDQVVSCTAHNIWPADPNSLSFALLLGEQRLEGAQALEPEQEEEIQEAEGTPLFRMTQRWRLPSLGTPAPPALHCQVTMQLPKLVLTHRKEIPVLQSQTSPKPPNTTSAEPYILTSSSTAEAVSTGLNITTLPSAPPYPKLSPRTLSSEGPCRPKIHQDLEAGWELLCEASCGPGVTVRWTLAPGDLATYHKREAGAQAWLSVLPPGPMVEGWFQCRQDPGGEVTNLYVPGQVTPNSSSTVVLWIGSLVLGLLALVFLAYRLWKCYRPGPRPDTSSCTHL


Assays:
[1] = target: T1, human MAdCAM expressed on cells; test: cell binding
[2] = target: T2, mouse MAdCAM expressed on cells; test: cell binding

Binder	binding result [1]	binding result [2]
MAdCAM Antibody Table 2 Clone 36 (antibody, human IgG1, V domains shown) VH: EVQLLESGGGLVQPGGSLRLSCAASGFTFDDYALHWVRQAPGKGLEWVSAISGDGRSTTYADSVKGRFTISRDNSKNTLYLQMNSLRAEDTAVYYCARDGTVNGATGWFDPWGQGTLVTVSS VL: not shown	binds	binds
MAdCAM Antibody Table 2 Clone 40 (antibody, human IgG1, V domains shown) VH: QVQLVQSGAEVKKPGASVKVSCKASGYTLTTWYMYWVRQAPGQGLEWMGWINPNRGATNYAQKFQGRVTMTRDTSTSTVYMELSSLRSEDTAVYYCAKGDLWGAMDVWGQGTLVTVSS VL: DIQMTQSPSSLSASVGDRVTITCRASDNIGSWLAWYQQKPGKAPKLLIYAASSLQSGVPSRFSGSGSGTDFTLTISSLQPEDFATYYCQQGYSTPPTFGQGTKVEIK	binds	no binding
MAdCAM Antibody Table 2 Clone 37 (antibody, human IgG1, V domains shown) VH: EVQLLESGGGLVQPGGSLRLSCAASGFTFSDYGMPWVRQAPGKGLEWVSAISGSGGSTYYADSVKGRFTISRDNSKNTLYLQMNSLRAEDTAVYYCARDGGWQPAAILDYWGQGTLVTVSS VL: DIQMTQSPSSLSASVGDRVTITCRASQGISNNLNWYQQKPGKAPKLLIYDASNLETGVPSRFSGSGSGTDFTLTISSLQPEDFATYYCQQSYSTPLTFGQGTKVEIK	binds	no binding
MAdCAM Antibody Table 2 Clone 42 (antibody, human IgG1, V domains shown) VH: QVQLVQSGAEVKKPGASVKVSCKASGYTLTDYYMHWVRQAPGQGLEWMGIINPSGGSTSYAQKFQGRVTMTRDTSTSTVYMELSSLRSEDTAVYYCAREEYSSSSGYFDYWGQGTLVTVSS VL: DIQMTQSPSSLSASVGDRVTITCRASQGISSWLAWYQQKPGKAPKLLIYAASSLQSGVPSRFSGSGSGTDFTLTISSLQPEDFATYYCQQSYSTPLTFGQGTKVEIK	binds	no binding

More lines, now with the values ahead:

binding result [1]	binding result [2]	Binder
binds	no binding	MAdCAM Antibody Table 2 Clone 39 (antibody, human IgG1, V domains shown) VH: QVQLVQSGAEVKKPGASVKVSCKASGYTFTSYYMHWVRQAPGQGLEWMAWMNPNSGNTGYAQKFQGRVTMTRDTSTSTVYMELSSLRSEDTAVYYCARDYDFWSGSLGYWGQGTLVTVSS VL: DIQMTQSPSSLSASVGDRVTITCRASQGISNYLAWYQQKPGKAPKLLIYAASSLQSGVPSRFSGSGSGTDFTLTISSLQPEDFATYYCQQSYSTPWTFGQGTKVEIK
binds	no binding	MAdCAM Antibody Table 2 Clone 41 (antibody, human IgG1, V domains shown) VH: QVQLVQSGAEVKKPGASVKVSCKASGYTFTSYYMHWVRQAPGQGLEWMGIINPSGGSTSYAQKFQGRVTMTRDTSTSTVYMELSSLRSEDTAVYYCARDTGYSYGRYYYYGMDVWGQGTLVTVSS VL: DIQMTQSPSSLSASVGDRVTITCRASQSIGRWLAWYQQKPGKAPKLLIYDASNLQSGVPSRFSGSGSGTDFTLTISSLQPEDFATYYCQQSYSIPITFGQGTKVEIK
binds	no binding	MAdCAM Antibody Table 2 Clone 38 (antibody, human IgG1, V domains shown) VH: QVQLVQSGAEVKKPGASVKVSCKASGYTFTDYFLHWVRQAPGQGLEWMGWMNPTSGNTGYAQKFQGRVTMTRDTSTSTVYMELSSLRSEDTAVYYCAREGEGSGFDYWGQGTLVTVSS VL: DIQMTQSPSSLSASVGDRVTITCRASQGINSWLAWYQQKPGKAPKLLIYDASNLETGVPSRFSGSGSGTDFTLTISSLQPEDFATYYCQQSYSTPLTFGGGTKVEIK
binds	no binding	MAdCAM Antibody Table 2 Clone 59 (antibody, human IgG1, V domains shown) VH: EVQLLESGGGLVQPGGSLRLSCAASGFSFSDYGMHWVRQAPGKGLEWVSAISGSGGSTYYADSVKGRFTISRDNSKNTLYLQMNSLRAEDTAVYYCARDGGWQPAAILDYWGQGTLVTVSS VL: DIQMTQSPSSLSASVGDRVTITCRASQGISNNLNWYQQKPGKAPKLLIYDASNLETGVPSRFSGSGSGTDFTLTISSLQPEDFATYYCQQSYSTPLTFGGGTKVEIK
